Numbering of substitutions follows the chain as printed.
What was measured:
[1] = biological target: T1, recombinant human PEDF expressed in CHO cells (UniProt P36955)
T1 sequence: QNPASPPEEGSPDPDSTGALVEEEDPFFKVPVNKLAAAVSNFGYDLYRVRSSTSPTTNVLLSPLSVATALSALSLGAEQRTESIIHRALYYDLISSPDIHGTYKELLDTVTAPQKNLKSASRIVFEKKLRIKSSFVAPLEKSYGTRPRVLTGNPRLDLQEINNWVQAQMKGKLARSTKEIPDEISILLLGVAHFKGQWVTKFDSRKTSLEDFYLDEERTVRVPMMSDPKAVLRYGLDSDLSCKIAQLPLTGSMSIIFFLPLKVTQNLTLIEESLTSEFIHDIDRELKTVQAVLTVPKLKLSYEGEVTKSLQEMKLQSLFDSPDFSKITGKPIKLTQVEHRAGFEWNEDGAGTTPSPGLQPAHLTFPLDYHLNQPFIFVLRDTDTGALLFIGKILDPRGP

[2] = system: T2, pigment epithelium derived factor (PEDF) isolated from human plasma
T2 sequence: T1 sequence with T53M, E78D, Q79E

protein kinase CK2 holoenzyme
phosphorylation by CK2 in the presence of poly-L-lysine (autoradiography) [1]: both rPEDF and pIPEDF were phosphorylated by CK2 in the presence of poly-L-lysine
stoichiometry of phosphorylation [1]: ˜0.1 mol of phosphate per mol of rPEDF
stoichiometry of phosphorylation, rPEDF heat-treated (15 min at 56° C.) before phosphorylation [1]: reached a plateau at ˜0.25 mol/mol
phosphorylation by CK2 in the presence of poly-L-lysine (autoradiography) [2]: both rPEDF and pIPEDF were phosphorylated by CK2 in the presence of poly-L-lysine
stoichiometry of phosphorylation [2]: ˜0.02 mol of phosphate per mol of plasma PEDF
stoichiometry of phosphorylation, plasma PEDF heat-treated (15 min at 56° C.) before phosphorylation [2]: reached a plateau at ˜0.12 mol/mol

Source: US20050148508
